Source: US20240368574A1 (BELLICUM PHARMACEUTICALS, published 2024)

Target: four tandem FKBP12 domains expressed from pBP0722 pSH1-Fpk-Fpk'.LS.Fpk''.Fpk'''.LS.HA
Assay: cell-based or functional assay

IC50 of rapamycin or C7-isopropoxy-rapamycin (the small-molecule heterodimerizer, not of a protein) for loss of SRα-SEAP reporter activity in transfected 293 cells: ~3 nM
B1: FRBL-ΔCaspase-9 expressed from pBP0463 pSH1-FRBL.dCaspase9.T2A (other)
chain: EMWHEGLEEASRLYFGERNVKGMFEVLEPLHAMMERGPQTLKETSFNQAYGRDLMEAQEWCRKYMKSGNVKDLLQAWDLYYHVFRRISKSGGGSGVDDGFGDVGALESLRGNADLAYILSMEPCGHCLIINNVNFCRESGLRTRTGSNIDCEKLRRRFSSLHFMVEVKGDLTAKKMVLALLELARQDHGALDCCVVVILSHGCQASHLQFPGAVYGTDGCPVSVEKIVNIFNGTSCPSLGGKPKLFFIQACGGEQKDHGFEVASTSPEDESPGSNPEPDATPFQEGLRTFDQLDAISSLPTPSDIFVSYSTFPGFVSWRDPKSGSWYVETLDDIFEQWAHSEDLQSLLLRVANAVSVKGIYKQMPGCFNFLRKKLFFKTSASRAEGRGSLLTCGDVEENPGP
